Earlier results on 1 substance are cited in publication PMC5830169.

pKd: −log10 of the molar value.

The target in the data set is rhodopsin (UniProt P02699).
Chain of UniProt P02699 (P02699 whole entry): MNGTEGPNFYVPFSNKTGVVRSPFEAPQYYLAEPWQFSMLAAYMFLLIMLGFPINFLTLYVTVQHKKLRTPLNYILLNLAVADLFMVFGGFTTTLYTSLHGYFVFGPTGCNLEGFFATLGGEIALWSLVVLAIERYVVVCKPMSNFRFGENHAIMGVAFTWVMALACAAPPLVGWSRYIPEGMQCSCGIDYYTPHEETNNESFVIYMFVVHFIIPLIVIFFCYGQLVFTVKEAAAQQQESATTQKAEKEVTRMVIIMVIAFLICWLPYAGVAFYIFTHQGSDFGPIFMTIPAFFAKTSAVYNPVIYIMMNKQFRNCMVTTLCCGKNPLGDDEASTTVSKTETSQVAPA

In the case of visual arrestin (from UniProt P10523), the negative logarithm of the Kd (pKd) was 7.30.

By pKd is commonly meant the negative decadic logarithm of the Kd, by convention in mol/L.
